Laboratory results reported in PMC9482650, “Quantitative fragmentomics allow affinity mapping of interactomes” (Nature Communications, 2022).
Where a chain is given by its changes, count along the chain named.

Target: T1, FRMPD1, Q5SYB0
T1 sequence (Q5SYB0 52-145, limits assumed, looked up): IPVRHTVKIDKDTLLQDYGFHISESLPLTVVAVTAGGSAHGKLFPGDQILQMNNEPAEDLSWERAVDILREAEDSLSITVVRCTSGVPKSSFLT
Assay: holdup assay
Design: key: below the threshold = too weak to quantify, mostly under pKd 3.1 to 4
Conditions: plain residues with an end cap or a label only (N-terminal biotin on a linker: ado-ado)

Binder | pKd
NHSSSPETTA [TRMT13, Q9NUP7] | below the threshold
PAPSSGKDYV [CLDN1, O95832] | below the threshold
EVEEFPETSV [TRPV3, Q8NET8] | below the threshold

Target: IL16_4, Q14005
Assay: holdup assay
Design: key: below the threshold = too weak to quantify, mostly under pKd 3.1 to 4
Conditions: plain residues with an end cap or a label only (N-terminal biotin on a linker: ado-ado)

Sequence of IL16_4, Q14005 (Q14005 1229-1329): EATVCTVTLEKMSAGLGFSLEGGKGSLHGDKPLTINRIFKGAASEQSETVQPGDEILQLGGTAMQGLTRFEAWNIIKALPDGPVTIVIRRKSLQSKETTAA

Binder | pKd
NHSSSPETTA [TRMT13, Q9NUP7] | below the threshold
PAPSSGKDYV [CLDN1, O95832] | below the threshold
EVEEFPETSV [TRPV3, Q8NET8] | below the threshold

Target: T2, LIN7C, Q9NUP9
T2 sequence (Q9NUP9 88-185, limits assumed, looked up): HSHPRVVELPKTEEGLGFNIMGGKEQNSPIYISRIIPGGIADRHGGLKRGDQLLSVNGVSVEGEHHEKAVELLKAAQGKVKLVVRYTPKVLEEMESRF
Assay: holdup assay
Design: key: below the threshold = too weak to quantify, mostly under pKd 3.1 to 4
Conditions: plain residues with an end cap or a label only (N-terminal biotin on a linker: ado-ado)

Binder | pKd
NHSSSPETTA [TRMT13, Q9NUP7] | below the threshold
PAPSSGKDYV [CLDN1, O95832] | below the threshold
EVEEFPETSV [TRPV3, Q8NET8] | 4.51

Target: T3, MPP2, Q14168
T3 sequence (Q14168 180-250, limits assumed, looked up): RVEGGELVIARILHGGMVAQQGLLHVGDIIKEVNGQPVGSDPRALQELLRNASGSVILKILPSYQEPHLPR
Assay: holdup assay
Design: key: below the threshold = too weak to quantify, mostly under pKd 3.1 to 4
Conditions: plain residues with an end cap or a label only (N-terminal biotin on a linker: ado-ado)

Binder | pKd
NHSSSPETTA [TRMT13, Q9NUP7] | below the threshold
PAPSSGKDYV [CLDN1, O95832] | below the threshold
EVEEFPETSV [TRPV3, Q8NET8] | below the threshold

Target: Inadl_8, Q8NI35
Assay: holdup assay
Design: key: below the threshold = too weak to quantify, mostly under pKd 3.1 to 4
Conditions: plain residues with an end cap or a label only (N-terminal biotin on a linker: ado-ado)

Sequence of Inadl_8, Q8NI35 (Q8NI35 1425-1530): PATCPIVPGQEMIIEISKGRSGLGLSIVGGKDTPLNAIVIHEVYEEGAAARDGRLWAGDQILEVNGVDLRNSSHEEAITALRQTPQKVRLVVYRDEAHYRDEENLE

Binder | pKd
NHSSSPETTA [TRMT13, Q9NUP7] | below the threshold
PAPSSGKDYV [CLDN1, O95832] | 3.92
EVEEFPETSV [TRPV3, Q8NET8] | 3.86

Target: T4, LIN7B, Q9HAP6
T4 sequence (Q9HAP6 88-185, limits assumed, looked up): T2 sequence (Q9NUP9 88-185, limits assumed, looked up) with S2A, E13D, I35V, I40V, H65Q, K79S, K89R, S96A
Assay: holdup assay
Design: key: below the threshold = too weak to quantify, mostly under pKd 3.1 to 4
Conditions: plain residues with an end cap or a label only (N-terminal biotin on a linker: ado-ado)

Binder | pKd
NHSSSPETTA [TRMT13, Q9NUP7] | below the threshold
PAPSSGKDYV [CLDN1, O95832] | below the threshold
EVEEFPETSV [TRPV3, Q8NET8] | 4.3

Target: T5, GRIP1_4, Q9Y3R0
T5 sequence (Q9Y3R0 467-571, limits assumed, looked up): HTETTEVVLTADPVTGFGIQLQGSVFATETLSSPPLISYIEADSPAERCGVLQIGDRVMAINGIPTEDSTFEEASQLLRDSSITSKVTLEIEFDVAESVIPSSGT
Assay: holdup assay
Design: key: below the threshold = too weak to quantify, mostly under pKd 3.1 to 4
Conditions: plain residues with an end cap or a label only (N-terminal biotin on a linker: ado-ado)

Binder | pKd
NHSSSPETTA [TRMT13, Q9NUP7] | below the threshold
PAPSSGKDYV [CLDN1, O95832] | below the threshold
EVEEFPETSV [TRPV3, Q8NET8] | 3.47

Target: Inadl_9, Q8NI35
Assay: holdup assay
Design: key: below the threshold = too weak to quantify, mostly under pKd 3.1 to 4
Conditions: plain residues with an end cap or a label only (N-terminal biotin on a linker: ado-ado)

Sequence of Inadl_9, Q8NI35 (Q8NI35 1530-1615): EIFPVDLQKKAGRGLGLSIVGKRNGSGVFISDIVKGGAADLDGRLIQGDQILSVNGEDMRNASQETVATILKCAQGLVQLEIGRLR

Binder | pKd
NHSSSPETTA [TRMT13, Q9NUP7] | below the threshold
PAPSSGKDYV [CLDN1, O95832] | 3.61
EVEEFPETSV [TRPV3, Q8NET8] | 3.93

Target: MAGI2_5, Q86UL8
Assay: holdup assay
Design: key: below the threshold = too weak to quantify, mostly under pKd 3.1 to 4
Conditions: plain residues with an end cap or a label only (N-terminal biotin on a linker: ado-ado)

Sequence of MAGI2_5, Q86UL8 (Q86UL8 915-1017): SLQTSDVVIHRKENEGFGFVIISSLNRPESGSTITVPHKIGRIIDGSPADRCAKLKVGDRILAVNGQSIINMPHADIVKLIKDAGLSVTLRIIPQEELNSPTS

Binder | pKd
NHSSSPETTA [TRMT13, Q9NUP7] | below the threshold
PAPSSGKDYV [CLDN1, O95832] | below the threshold
EVEEFPETSV [TRPV3, Q8NET8] | 3.82

Target: MAST2, Q6P0Q8
Assay: holdup assay
Design: key: below the threshold = too weak to quantify, mostly under pKd 3.1 to 4
Conditions: plain residues with an end cap or a label only (N-terminal biotin on a linker: ado-ado)

Sequence of MAST2, Q6P0Q8 (Q6P0Q8 1099-1202): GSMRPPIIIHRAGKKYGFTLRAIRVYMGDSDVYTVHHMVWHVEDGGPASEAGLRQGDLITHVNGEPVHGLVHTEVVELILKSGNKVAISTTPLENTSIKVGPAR

Binder | pKd
NHSSSPETTA [TRMT13, Q9NUP7] | below the threshold
PAPSSGKDYV [CLDN1, O95832] | 3.84
EVEEFPETSV [TRPV3, Q8NET8] | 5.5

Target: NHERF4_4, Q86UT5
Assay: holdup assay
Design: key: below the threshold = too weak to quantify, mostly under pKd 3.1 to 4
Conditions: plain residues with an end cap or a label only (N-terminal biotin on a linker: ado-ado)

Sequence of NHERF4_4, Q86UT5 (Q86UT5 464-550): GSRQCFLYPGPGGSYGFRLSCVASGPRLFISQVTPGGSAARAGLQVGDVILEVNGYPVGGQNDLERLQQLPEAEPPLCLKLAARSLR

Binder | pKd
NHSSSPETTA [TRMT13, Q9NUP7] | below the threshold
PAPSSGKDYV [CLDN1, O95832] | below the threshold
EVEEFPETSV [TRPV3, Q8NET8] | below the threshold

Target: T6, PDZD2_2, O15018
T6 sequence (O15018 329-429, limits assumed, looked up): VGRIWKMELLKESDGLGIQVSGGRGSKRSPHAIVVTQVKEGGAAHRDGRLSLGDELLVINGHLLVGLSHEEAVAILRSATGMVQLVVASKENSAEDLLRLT
Assay: holdup assay
Design: key: below the threshold = too weak to quantify, mostly under pKd 3.1 to 4
Conditions: plain residues with an end cap or a label only (N-terminal biotin on a linker: ado-ado)

Binder | pKd
NHSSSPETTA [TRMT13, Q9NUP7] | below the threshold
PAPSSGKDYV [CLDN1, O95832] | 4.59
EVEEFPETSV [TRPV3, Q8NET8] | 4.99

Target: DLG4_1, P78352
Assay: holdup assay
Design: key: below the threshold = too weak to quantify, mostly under pKd 3.1 to 4
Conditions: plain residues with an end cap or a label only (N-terminal biotin on a linker: ado-ado)

Sequence of DLG4_1, P78352 (P78352 62-152): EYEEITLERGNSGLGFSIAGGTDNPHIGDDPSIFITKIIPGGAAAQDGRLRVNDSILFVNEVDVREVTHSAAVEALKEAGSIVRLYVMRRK

Binder | pKd
NHSSSPETTA [TRMT13, Q9NUP7] | below the threshold
PAPSSGKDYV [CLDN1, O95832] | 3.6
EVEEFPETSV [TRPV3, Q8NET8] | 4.36

Target: LNX1_3, Q8TBB1
Assay: holdup assay
Design: key: below the threshold = too weak to quantify, mostly under pKd 3.1 to 4
Conditions: plain residues with an end cap or a label only (N-terminal biotin on a linker: ado-ado)

Sequence of LNX1_3, Q8TBB1 (Q8TBB1 500-596): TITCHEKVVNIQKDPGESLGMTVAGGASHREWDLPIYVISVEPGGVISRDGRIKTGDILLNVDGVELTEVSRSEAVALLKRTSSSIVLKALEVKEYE

Binder | pKd
NHSSSPETTA [TRMT13, Q9NUP7] | below the threshold
PAPSSGKDYV [CLDN1, O95832] | below the threshold
EVEEFPETSV [TRPV3, Q8NET8] | below the threshold

Target: FRMPD2_1, Q68DX3
Assay: holdup assay
Design: key: below the threshold = too weak to quantify, mostly under pKd 3.1 to 4
Conditions: plain residues with an end cap or a label only (N-terminal biotin on a linker: ado-ado)

Sequence of FRMPD2_1, Q68DX3 (Q68DX3 770-861): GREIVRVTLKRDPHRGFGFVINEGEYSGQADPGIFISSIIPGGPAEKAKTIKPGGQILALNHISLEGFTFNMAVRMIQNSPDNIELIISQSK

Binder | pKd
NHSSSPETTA [TRMT13, Q9NUP7] | below the threshold
PAPSSGKDYV [CLDN1, O95832] | below the threshold
EVEEFPETSV [TRPV3, Q8NET8] | 3.59

Target: T7, APBA3_1, O96018
T7 sequence (O96018 389-490, limits assumed, looked up): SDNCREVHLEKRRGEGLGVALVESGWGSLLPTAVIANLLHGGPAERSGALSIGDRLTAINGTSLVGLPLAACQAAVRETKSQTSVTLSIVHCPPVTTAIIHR
Assay: holdup assay
Design: key: below the threshold = too weak to quantify, mostly under pKd 3.1 to 4
Conditions: plain residues with an end cap or a label only (N-terminal biotin on a linker: ado-ado)

Binder | pKd
NHSSSPETTA [TRMT13, Q9NUP7] | below the threshold
PAPSSGKDYV [CLDN1, O95832] | below the threshold
EVEEFPETSV [TRPV3, Q8NET8] | below the threshold

Target: Inadl_6, Q8NI35
Assay: holdup assay
Design: key: below the threshold = too weak to quantify, mostly under pKd 3.1 to 4
Conditions: plain residues with an end cap or a label only (N-terminal biotin on a linker: ado-ado)

Sequence of Inadl_6, Q8NI35 (Q8NI35 1058-1167): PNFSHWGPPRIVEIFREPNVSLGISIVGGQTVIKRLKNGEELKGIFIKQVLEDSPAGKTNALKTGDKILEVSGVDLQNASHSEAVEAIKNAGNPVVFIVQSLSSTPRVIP

Binder | pKd
NHSSSPETTA [TRMT13, Q9NUP7] | below the threshold
PAPSSGKDYV [CLDN1, O95832] | below the threshold
EVEEFPETSV [TRPV3, Q8NET8] | 4.18

Target: T8, PDZD7_3, Q9H5P4
T8 sequence (Q9H5P4 857-944, limits assumed, looked up): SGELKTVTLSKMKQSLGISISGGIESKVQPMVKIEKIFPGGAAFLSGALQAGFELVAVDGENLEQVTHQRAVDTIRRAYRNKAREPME
Assay: holdup assay
Design: key: below the threshold = too weak to quantify, mostly under pKd 3.1 to 4
Conditions: plain residues with an end cap or a label only (N-terminal biotin on a linker: ado-ado)

Binder | pKd
NHSSSPETTA [TRMT13, Q9NUP7] | below the threshold
PAPSSGKDYV [CLDN1, O95832] | below the threshold
EVEEFPETSV [TRPV3, Q8NET8] | 4.82

Target: Inadl_3, Q8NI35
Assay: holdup assay
Design: key: below the threshold = too weak to quantify, mostly under pKd 3.1 to 4
Conditions: plain residues with an end cap or a label only (N-terminal biotin on a linker: ado-ado)

Sequence of Inadl_3, Q8NI35 (Q8NI35 359-469): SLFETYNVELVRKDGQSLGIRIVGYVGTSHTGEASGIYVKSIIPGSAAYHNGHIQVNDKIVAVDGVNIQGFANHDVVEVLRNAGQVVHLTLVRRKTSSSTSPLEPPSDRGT

Binder | pKd
NHSSSPETTA [TRMT13, Q9NUP7] | below the threshold
PAPSSGKDYV [CLDN1, O95832] | below the threshold
EVEEFPETSV [TRPV3, Q8NET8] | 3.72

Target: T9, LNX2_3, Q8N448
T9 sequence (Q8N448 463-564, limits assumed, looked up): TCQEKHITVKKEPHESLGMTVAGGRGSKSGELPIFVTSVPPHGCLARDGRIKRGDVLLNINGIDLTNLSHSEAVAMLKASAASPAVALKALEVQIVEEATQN
Assay: holdup assay
Design: key: below the threshold = too weak to quantify, mostly under pKd 3.1 to 4
Conditions: plain residues with an end cap or a label only (N-terminal biotin on a linker: ado-ado)

Binder | pKd
NHSSSPETTA [TRMT13, Q9NUP7] | below the threshold
PAPSSGKDYV [CLDN1, O95832] | below the threshold
EVEEFPETSV [TRPV3, Q8NET8] | 3.62

Target: T10, HTRA4, P83105
T10 sequence (P83105 378-476, limits assumed, looked up): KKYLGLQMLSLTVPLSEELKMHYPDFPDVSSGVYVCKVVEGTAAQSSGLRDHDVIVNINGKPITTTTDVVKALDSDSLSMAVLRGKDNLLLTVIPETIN
Assay: holdup assay
Design: key: below the threshold = too weak to quantify, mostly under pKd 3.1 to 4
Conditions: plain residues with an end cap or a label only (N-terminal biotin on a linker: ado-ado)

Binder | pKd
NHSSSPETTA [TRMT13, Q9NUP7] | below the threshold
PAPSSGKDYV [CLDN1, O95832] | below the threshold
EVEEFPETSV [TRPV3, Q8NET8] | below the threshold

Target: T11, DVL3, Q92997
T11 sequence (Q92997 244-331, limits assumed, looked up): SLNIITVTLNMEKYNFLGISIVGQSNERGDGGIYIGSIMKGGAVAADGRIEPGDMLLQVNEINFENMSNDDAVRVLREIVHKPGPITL
Assay: holdup assay
Design: key: below the threshold = too weak to quantify, mostly under pKd 3.1 to 4
Conditions: plain residues with an end cap or a label only (N-terminal biotin on a linker: ado-ado)

Binder | pKd
NHSSSPETTA [TRMT13, Q9NUP7] | below the threshold
PAPSSGKDYV [CLDN1, O95832] | below the threshold
EVEEFPETSV [TRPV3, Q8NET8] | 3.59

Target: NHERF4_1, Q86UT5-2
Assay: holdup assay
Design: key: below the threshold = too weak to quantify, mostly under pKd 3.1 to 4
Conditions: plain residues with an end cap or a label only (N-terminal biotin on a linker: ado-ado)

Sequence of NHERF4_1, Q86UT5-2 (Q86UT5 other isoform, or with tags, fused parts or gaps): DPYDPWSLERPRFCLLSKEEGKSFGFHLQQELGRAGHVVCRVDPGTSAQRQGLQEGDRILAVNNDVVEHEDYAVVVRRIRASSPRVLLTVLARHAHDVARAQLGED

Binder | pKd
NHSSSPETTA [TRMT13, Q9NUP7] | below the threshold
PAPSSGKDYV [CLDN1, O95832] | 3.62
EVEEFPETSV [TRPV3, Q8NET8] | below the threshold

Target: ARHGEF12, Q9NZN5-2
Assay: holdup assay
Design: key: below the threshold = too weak to quantify, mostly under pKd 3.1 to 4
Conditions: plain residues with an end cap or a label only (N-terminal biotin on a linker: ado-ado)

Sequence of ARHGEF12, Q9NZN5-2 (Q9NZN5 other isoform, or with tags, fused parts or gaps): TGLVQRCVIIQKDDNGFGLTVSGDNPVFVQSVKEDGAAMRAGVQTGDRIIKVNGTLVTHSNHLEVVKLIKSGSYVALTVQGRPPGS

Binder | pKd
NHSSSPETTA [TRMT13, Q9NUP7] | below the threshold
PAPSSGKDYV [CLDN1, O95832] | below the threshold
EVEEFPETSV [TRPV3, Q8NET8] | 3.94

Target: Inadl_1, Q8NI35
Assay: holdup assay
Design: key: below the threshold = too weak to quantify, mostly under pKd 3.1 to 4
Conditions: plain residues with an end cap or a label only (N-terminal biotin on a linker: ado-ado)

Sequence of Inadl_1, Q8NI35 (Q8NI35 113-229): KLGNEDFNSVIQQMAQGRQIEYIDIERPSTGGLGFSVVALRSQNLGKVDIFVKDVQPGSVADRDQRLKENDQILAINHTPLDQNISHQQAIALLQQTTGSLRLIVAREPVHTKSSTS

Binder | pKd
NHSSSPETTA [TRMT13, Q9NUP7] | below the threshold
PAPSSGKDYV [CLDN1, O95832] | below the threshold
EVEEFPETSV [TRPV3, Q8NET8] | below the threshold

Target: GRID2IP_1, A4D2P6
Assay: holdup assay
Design: key: below the threshold = too weak to quantify, mostly under pKd 3.1 to 4
Conditions: plain residues with an end cap or a label only (N-terminal biotin on a linker: ado-ado)

Sequence of GRID2IP_1, A4D2P6 (A4D2P6 1-87): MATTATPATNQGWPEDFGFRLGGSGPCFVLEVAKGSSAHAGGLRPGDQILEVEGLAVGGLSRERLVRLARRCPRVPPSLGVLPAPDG

Binder | pKd
NHSSSPETTA [TRMT13, Q9NUP7] | below the threshold
PAPSSGKDYV [CLDN1, O95832] | below the threshold
EVEEFPETSV [TRPV3, Q8NET8] | 3.7
